Reference: US20230212587A1, “Mutant Hydroxyphenylpyruvate Dioxygenase Polypeptide, Encoding Gene Thereof and Use Therefor” (Beijing Dabeinong Biotechnology Co., Ltd., priority 2019, published 2023)

B1: AsHPPDm-F372A-A110: Avena sativa HPPD with F372A and deletion of alanine at position 110, SEQ ID NO: 412 (protein)
chain: MPPTPATATGAAAAAVTPEHAARSFPRVVRVNPRSDRFPVLSFHHVELWCADAASAAGRFSFALGAPLAARSDLSTGNSAHASLLLRSGALAFLFTAPYAPPPQEAATAATASIPSFSADAARTFAAAHGLAVRSVGVRVADAAEAFRVSVAGGARPAFAPADLGHGFGLAEVELYGDVVLRFVSYPDETDLPFLPGFERVSSPGAVDYGLTRFDHVVGNVPEMAPVIDYMKGFLGFHEFAEFTAEDVGTTESGLNSVVLANNSEAVLLPLNEPVHGTKRRSQIQTYLEYHGGPGVQHIALASNDVLRTLREMRARTPMGGFEFMAPPQAKYYEGVRRIAGDVLSEEQIKECQELGVLVDRDDQGVLLQIATKPVGDRPTFFLEMIQRIGCMEKDEVGQEYQKGGCGGFGKGNFSELFKSIEDYEKSLEVKQSVVAQKS
modifications: AsHPPDm-F372A-A110 Amino Acid Sequence
B2: PfHPPDm-F372A-02: Pseudomonas fluorescens HPPD mutant F372A, SEQ ID NO: 30 (protein)
chain: MADLYENPMGLMGFEFIEFASPTPGTLEPIFEIMGFTKVATHRSKNVHLYRQGEINLILNNEPNSIASYFAAEHGPSVCGMAFRVKDSQKAYNRALELGAQPIHIDTGPMELNLPAIKGIGGAPLYLIDRFGEGSSIYDIDFVYLEGVERNPVGAGLKVIDHLTHNVYRGRMVYWANFYEKLFNFREARYFDIKGEYTGLTSKAMSAPDGMIRIPLNEESSKGAGQIEEFLMQFNGEGIQHVAFLTDDLVKTWDALKKIGMRFMTAPPDTYYEMLEGRLPDHGEPVDQLQARGILLDGSSVEGDKRLLLQIASETLMGPVFFEFIQRKGDDGFGEGNFKALFESIERDQVRRGVLTAD
modifications: PfHPPDm-F372A Amino Acid Sequence
B3: ZmHPPDm-F372A-02: Zea mays HPPD mutant F372A, SEQ ID NO: 20 (protein)
chain: MPPTPTAAAAGAAVAAASAAEQAAFRLVGHRNFVRFNPRSDRFHTLAFHHVELWCADAASAAGRFSFGLGAPLAARSDLSTGNSAHASLLLRSGSLSFLFTAPYAHGADAATAALPSFSAAAARRFAADHGLAVRAVALRVADAEEAFRTSVAAGARPAFGPVDLGRGFRLAEVELYGDVVLRYVSYPDGAAGEPFLPGFEGVASPGAADYGLSRFDHIVGNVPELAPAAAYFAGFTGFHEFAEFTTEDVGTAESGLNSMVLANNSENVLLPLNEPVHGTKRRSQIQTFLDHHGGPGVQHMALASDDVLRTLREMQARSAMGGFEFMAPPTSDYYDGVRRRAGDVLTEAQIKECQELGVLVDRDDQGVLLQIAPKPVGDRPTLFLEIIQRIGCMERDEKGQEYQKGGCGGFGKGNFSQLFKSIEDYEKSLEAMQAAAAATAQGS
modifications: ZmHPPDm-F372A Amino Acid Sequence
B4: AsHPPDm-F372A-02: Avena sativa HPPD mutant F372A, SEQ ID NO: 4; gene SEQ ID NO: 6 (protein)
chain: MPPTPATATGAAAAAVTPEHAARSFPRVVRVNPRSDRFPVLSFHHVELWCADAASAAGRFSFALGAPLAARSDLSTGNSAHASLLLRSGALAFLFTAPYAPPPQEAATAAATASIPSFSADAARTFAAAHGLAVRSVGVRVADAAEAFRVSVAGGARPAFAPADLGHGFGLAEVELYGDVVLRFVSYPDETDLPFLPGFERVSSPGAVDYGLTRFDHVVGNVPEMAPVIDYMKGFLGFHEFAEFTAEDVGTTESGLNSVVLANNSEAVLLPLNEPVHGTKRRSQIQTYLEYHGGPGVQHIALASNDVLRTLREMRARTPMGGFEFMAPPQAKYYEGVRRIAGDVLSEEQIKECQELGVLVDRDDQGVLLQIATKPVGDRPTFFLEMIQRIGCMEKDEVGQEYQKGGCGGFGKGNFSELFKSIEDYEKSLEVKQSVVAQKS
modifications: AsHPPDm-F372A Amido Acid Sequence

Columns and labels:
Type in all cases: in vivo
soybean T1 plants [1] = assay: Tolerance of transgenic soybean T1 plants to mesotrione; conditions: mesotrione 210 and 420 g ai/ha, 7 DAT, compared to control vector and wild-type
Text: (§1) The Arabidopsisthaliana T1 plants into which the AsHPPDm-F372A-02 nucleotide sequence was introduced, Arabidopsis thaliana T1 plants into which the AsHPPD-02 nucleotide sequence was introduced and wild-type Arabidopsisthaliana plants (18 days after sowing) were sprayed with topramezone at four different concentrations, i.e., 25 g ai/ha (one-fold field concentration, 1×), 50 g ai/ha (two-fold field concentration, 2×), 100 g ai/ha (four-fold field concentration, 4×) and 0 g ai/ha (water, 0×) to determine the tolerance of Arabidopsisthaliana to the herbicide. The degree of damage caused by the herbicide was measured for each plant according to the proportion of bleached leaf area (the proportion of bleached leaf area=bleached leaf area/total leaf area×100%) 7 days after spraying (7 DAT): the case where there is basically no bleached phenotype is defined as grade 0, the case where the proportion of bleached leaf area is less than 50% is defined as grade 1,the case where the proportion of bleached leaf area is more than 50% is defined as grade 2, and the case where the proportion of bleached leaf area is 100% grade is defined as grade 3.
(§2) In order to further verify the tolerance effect of HPPD (F372A) on other HPPD inhibitors, the soybean T1 plants into which the AsHPPDm-F372A-02 nucleotide sequence was introduced, soybean T1 plants into which the ZmHPPDm-F372A-02 nucleotide sequence was introduced, soybean T1 plants into which the PfHPPDm-F372A-02 nucleotide sequence was introduced, soybean T1 plants into which the AsHPPDm-F372A-A110 nucleotide sequence was introduced, soybean T1 plants into which the control vector DBN11375NN was introduced in Example 8, and the wild-type soybean plants (V3-V4 at seedling stage) were sprayed as follows to detect the herbicide tolerance of each soybean plants, (1) 140 g ai/ha (2-fold field concentration, 2 ×) isoxaflutole; (2) 280 g ai/ha (4-fold field concentration, 4 ×) isoxaflutole; (3) 210 g ai/ha (2-fold field concentration, 2 ×) mesotrione; (4) 420 g ai/ha (4-fold field concentration, 4 ×) mesotrione. According to the method in point 6 of Example 1, after 7 days of spraying (7 DAT), the damage degree of each plant by the herbicide was statistically analyzed, and the scoring and resistance evaluation were carried out accordingly. […]

soybean T1 plants [2] = assay: Herbicide tolerance of transgenic soybean T1 plants to topramezone; conditions: topramezone 50 and 100 g ai/ha, 7 DAT, compared to control vector DBN11375NN and wild-type
Text: as §1
The soybean T1 plants into which the AsHPPDm-F372A-02 nucleotide sequence was introduced, soybean T1 plants into which the ZmHPPDm-F372A-02 nucleotide sequence was introduced, soybean T1 plants into which the PfHPPDm-F372A-02 nucleotide sequence was introduced, soybean T1 plants into which the AsHPPDm-F372A-A110 nucleotide sequence was introduced, soybean T1 plants into which, the PfHPPDm-F372A-G413W nucleotide sequence was introduced, soybean T1 plants into which the control vector DBN11375NN was introduced and wild-type soybean plants (V3-V4 at seedling stage) were sprayed with topramezone at two different concentrations respectively, i.e. 50 g ai/ha (2-fold field concentration, 2 ×) and 100 g ai/ha (4-fold field concentration, 4 ×) to detect the herbicide tolerance of soybean plants. According to the method in point 6 of Example 1, after 7 days of spraying (7 DAT), the damage degree of each plant by the herbicide was statistically analyzed, and the scoring and resistance evaluation were carried out accordingly. The soybean plants into which the AsHPPDm-F372A-02 nucleotide sequence was introduced were of two strains in total (S1 and S2), the soybean plants into which the ZmHPPDm-F372A-02 nucleotide sequence was introduced were of two strains in total (S3 and S4), the soybean plants into which the PfHPPDm-F372A-02 nucleotide sequence was introduced were of two strains in total (S5 and S6), the soybean plants into which the AsHPPDm-F372A-Al 10 nucleotide sequence was introduced were of two strains in total (S7 and S8), the soybean plants into which the PfHPPDm-F372A-G413W nucleotide sequence was introduced were of two strains in total (S9 and S10), the soybean plants into which the control vector DBN11375NN nucleotide sequence was introduced were of one strain in total (S11), and the wild-type soybean plants were of one strain in total (CK1); and 8 plants were selected from each strain and detected.

soybean T1 plants [3] = assay: Tolerance of transgenic soybean T1 plants to isoxaflutole; conditions: isoxaflutole 140 and 280 g ai/ha, 7 DAT, compared to control vector and wild-type
Text: as §1, §2

Molecule	tolerance to mesotrione, in words (soybean T1 plants [1])	tolerance to topramezone, in words (soybean T1 plants [2])	tolerance to isoxaflutole, in words (soybean T1 plants [3])
B1	different degrees of tolerance	higher tolerance	different degrees of tolerance
B2	different degrees of tolerance	higher tolerance	different degrees of tolerance
B3	different degrees of tolerance	higher tolerance	different degrees of tolerance
B4	different degrees of tolerance	higher tolerance	different degrees of tolerance
